Data: IntAct's records for PubMed 17006541

B1: DNA topoisomerase 2-binding protein 1 (Homo sapiens), Q92547 (parent)
chain: MSRNDKEPFFVKFLKSSDNSKCFFKALESIKEFQSEEYLQIITEEEALKIKENDRSLYICDPFSGVVFDHLKKLGCRIVGPQVVIFCMHHQRCVPRAEHPVYNMVMSDVTISCTSLEKEKREEVHKYVQMMGGRVYRDLNVSVTHLIAGEVGSKKYLVAANLKKPILLPSWIKTLWEKSQEKKITRYTDINMEDFKCPIFLGCIICVTGLCGLDRKEVQQLTVKHGGQYMGQLKMNECTHLIVQEPKGQKYECAKRWNVHCVTTQWFFDSIEKGFCQDESIYKTEPRPEAKTMPNSSTPTSQINTIDSRTLSDVSNISNINASCVSESICNSLNSKLEPTLENLENLDVSAFQAPEDLLDGCRIYLCGFSGRKLDKLRRLINSGGGVRFNQLNEDVTHVIVGDYDDELKQFWNKSAHRPHVVGAKWLLECFSKGYMLSEEPYIHANYQPVEIPVSHKPESKAALLKKKNSSFSKKDFAPSEKHEQADEDLLSQYENGSSTVVEAKTSEARPFNDSTHAEPLNDSTHISLQEENQSSVSHCVPDVSTITEEGLFSQKSFLVLGFSNENESNIANIIKENAGKIMSLLSRTVADYAVVPLLGCEVEATVGEVVTNTWLVTCIDYQTLFDPKSNPLFTPVPVMTGMTPLEDCVISFSQCAGAEKESLTFLANLLGASVQEYFVRKSNAKKGMFASTHLILKERGGSKYEAAKKWNLPAVTIAWLLETARTGKRADESHFLIENSTKEERSLETEITNGINLNSDTAEHPGTRLQTHRKTVVTPLDMNRFQSKAFRAVVSQHARQVAASPAVGQPLQKEPSLHLDTPSKFLSKDKLFKPSFDVKDALAALETPGRPSQQKRKPSTPLSEVIVKNLQLALANSSRNAVALSASPQLKEAQSEKEEAPKPLHKVVVCVSKKLSKKQSELNGIAASLGADYRWSFDETVTHFIYQGRPNDTNREYKSVKERGVHIVSEHWLLDCAQECKHLPESLYPHTYNPKMSLDISAVQDGRLCNSRLLSAVSSTKDDEPDPLILEENDVDNMATNNKESAPSNGSGKNDSKGVLTQTLEMRENFQKQLQEIMSATSIVKPQGQRTSLSRSGCNSASSTPDSTRSARSGRSRVLEALRQSRQTVPDVNTEPSQNEQIIWDDPTAREERARLASNLQWPSCPTQYSELQVDIQNLEDSPFQKPLHDSEIAKQAVCDPGNIRVTEAPKHPISEELETPIKDSHLIPTPQAPSIAFPLANPPVAPHPREKIITIEETHEELKKQYIFQLSSLNPQERIDYCHLIEKLGGLVIEKQCFDPTCTHIVVGHPLRNEKYLASVAAGKWVLHRSYLEACRTAGHFVQEEDYEWGSSSILDVLTGINVQQRRLALAAMRWRKKIQQRQESGIVEGAFSGWKVILHVDQSREAGFKRLLQSGGAKVLPGHSVPLFKEATHLFSDLNKLKPDDSGVNIAEAAAQNVYCLRTEYIADYLMQESPPHVENYCLPEAISFIQNNKELGTGLSQKRKAPTEKNKIKRPRVH

Assays:
[1] = variants of: B1; conditions: with e2f1_human E2F1, Q01094
e2f1_human E2F1, Q01094, sequence (Q01094 whole entry): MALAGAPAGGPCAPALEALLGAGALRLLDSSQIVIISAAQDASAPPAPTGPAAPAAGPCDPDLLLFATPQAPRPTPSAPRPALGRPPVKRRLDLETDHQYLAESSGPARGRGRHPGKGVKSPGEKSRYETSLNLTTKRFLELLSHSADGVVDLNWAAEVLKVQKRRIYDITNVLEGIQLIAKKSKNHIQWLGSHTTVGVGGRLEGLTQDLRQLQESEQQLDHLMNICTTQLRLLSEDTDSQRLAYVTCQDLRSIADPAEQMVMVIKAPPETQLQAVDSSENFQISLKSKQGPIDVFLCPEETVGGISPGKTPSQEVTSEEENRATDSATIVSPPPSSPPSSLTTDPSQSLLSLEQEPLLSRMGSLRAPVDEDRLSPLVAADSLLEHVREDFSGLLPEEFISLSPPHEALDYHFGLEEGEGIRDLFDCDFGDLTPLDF

[2] = variants of: B1; conditions: with akt1_human AKT1, P31749
akt1_human AKT1, P31749, sequence (P31749 whole entry): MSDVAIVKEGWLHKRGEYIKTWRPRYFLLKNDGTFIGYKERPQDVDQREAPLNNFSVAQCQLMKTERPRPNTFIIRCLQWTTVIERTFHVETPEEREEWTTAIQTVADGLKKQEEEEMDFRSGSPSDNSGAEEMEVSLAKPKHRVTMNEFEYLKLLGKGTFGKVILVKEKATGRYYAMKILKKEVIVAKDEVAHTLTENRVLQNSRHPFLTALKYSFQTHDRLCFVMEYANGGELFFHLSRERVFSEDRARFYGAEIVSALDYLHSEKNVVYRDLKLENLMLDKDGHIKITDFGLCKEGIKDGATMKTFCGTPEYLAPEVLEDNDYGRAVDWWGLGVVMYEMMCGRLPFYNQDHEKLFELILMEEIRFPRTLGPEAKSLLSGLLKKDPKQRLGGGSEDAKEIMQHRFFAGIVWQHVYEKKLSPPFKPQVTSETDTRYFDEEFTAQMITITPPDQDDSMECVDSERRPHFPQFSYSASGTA

[3] = variants of: B1; conditions: with pias2_human PIAS2, O75928
pias2_human PIAS2, O75928, sequence (O75928 whole entry): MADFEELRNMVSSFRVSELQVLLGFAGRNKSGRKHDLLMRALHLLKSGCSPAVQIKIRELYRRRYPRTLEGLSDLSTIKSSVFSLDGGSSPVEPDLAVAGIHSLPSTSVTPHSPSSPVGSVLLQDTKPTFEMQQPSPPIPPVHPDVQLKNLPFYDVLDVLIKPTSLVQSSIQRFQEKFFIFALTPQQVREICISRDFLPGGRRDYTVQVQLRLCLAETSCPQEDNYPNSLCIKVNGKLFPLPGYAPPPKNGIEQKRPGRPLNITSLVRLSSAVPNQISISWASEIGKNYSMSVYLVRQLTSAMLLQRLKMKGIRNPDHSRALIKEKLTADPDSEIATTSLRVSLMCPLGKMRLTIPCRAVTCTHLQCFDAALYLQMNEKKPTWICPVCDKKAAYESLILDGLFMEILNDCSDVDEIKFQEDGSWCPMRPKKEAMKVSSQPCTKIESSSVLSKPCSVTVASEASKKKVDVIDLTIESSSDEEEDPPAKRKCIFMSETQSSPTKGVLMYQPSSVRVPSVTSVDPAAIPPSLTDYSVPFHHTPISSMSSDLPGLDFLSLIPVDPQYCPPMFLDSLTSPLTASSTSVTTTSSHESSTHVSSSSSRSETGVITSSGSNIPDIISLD

[4] = variants of: B1; conditions: with ve2_hpv16 E2, P03120
ve2_hpv16 E2, P03120, sequence (P03120 whole entry): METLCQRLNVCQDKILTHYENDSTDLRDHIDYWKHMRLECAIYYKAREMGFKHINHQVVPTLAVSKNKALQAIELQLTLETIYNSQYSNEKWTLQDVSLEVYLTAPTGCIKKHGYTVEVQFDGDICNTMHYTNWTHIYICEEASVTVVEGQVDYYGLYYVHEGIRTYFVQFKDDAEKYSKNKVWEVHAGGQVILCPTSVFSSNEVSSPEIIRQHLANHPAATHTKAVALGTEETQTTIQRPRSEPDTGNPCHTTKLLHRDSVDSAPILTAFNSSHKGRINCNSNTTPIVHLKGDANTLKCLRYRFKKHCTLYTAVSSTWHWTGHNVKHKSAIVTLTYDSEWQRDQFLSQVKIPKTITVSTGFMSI

Row | Variant | effect of a mutation on the interaction [1] | effect of a mutation on the interaction [2] | effect of a mutation on the interaction [3] | effect of a mutation on the interaction [4]
1 | S1159D | decreasing interaction | – | – | –
2 | S1159A | disrupting interaction | disrupting interaction | decreasing interaction | decreasing interaction
